From patent US9115185 come the findings set out here.

By IC50 is commonly meant the concentration at which inhibition is half-maximal. Lower therefore signals greater potency.

The target of assay [1] is HLA-DR2 (DRB1*0201 [sic]), purified from B-lymphoblastic cell line IWB (human). In words: competition with fluorescent HA308-319 on purified HLA-DR2.
In assay [2] the target is HLA-DR1 (DRB*0101), purified from B-lymphoblastic cell line LG2.1 (human). Kind of assay: competition with fluorescent HA308-319 on purified HLA-DR1.

Consider HPV16 E2 peptide 271-300, for which the 50% inhibitory concentration (IC50) in assay [1] worked out at 65 µM; in assay [2] it was 22 µM.

Turning to HPV16 E2 peptide 286-315, the IC50 in assay [2] was 8 µM.

For the substance HPV16 E2 peptide 301-330, the results for the IC50 in assay [1] and in assay [2] were 8 µM and 6 µM, respectively.

For the substance HPV16 E2 peptide 316-345, the figures for the IC50 in assay [1] and in assay [2] were 55 µM and 6 µM, respectively.

Turning to HPV16 E2 peptide 331-365, the IC50 turned out to be 20 µM in assay [1] and 8 µM in assay [2].
